From the supplement of paper PMC10567573

B1: ESR2 (parent)
chain: KSCQACRLRKCYEVGMVKCGSRRE

Variants of: B1
Assay: protein stability index of a GFP-peptide fusion (GPS, HEK-293T) (PSI 1-6); higher = more stable
Conditions: c terminus: a fixed tail appended
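Note: lentivirally expressed fusions sorted by FACS into six bins by GFP to DsRed ratio, PSI derived from sequencing read proportions per bin multiplied by bin number.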

In order of falling protein stability index:
1. KSCQAKRLRKCYEVGMVKCGSRRE  3.22
2. KSEQACRLRKCYEVGMVKCGSRRE  3.21
3. SSCQACRLRKCYEVGMVKCGSRRE  3.19
4. KSCQRCRLRKCYEVGMVKCGSRRE  3.08
5. KYCQACRLRKCYEVGMVKCGSRRE  2.94
6. KSPQACRLRKCYEVGMVKCGSRRE  2.92
7. ASCQACRLRKCYEVGMVKCGSRRE  2.89
8. KSCQAGRLRKCYEVGMVKCGSRRE  2.88
9. KSCQAHRLRKCYEVGMVKCGSRRE  2.81
10. ISCQACRLRKCYEVGMVKCGSRRE  2.78
11. KSCQADRLRKCYEVGMVKCGSRRE  2.73
12. GSCQACRLRKCYEVGMVKCGSRRE  2.71
13. KSDQACRLRKCYEVGMVKCGSRRE  2.69
14. KSAQACRLRKCYEVGMVKCGSRRE  2.66
15. KSCQAIRLRKCYEVGMVKCGSRRE  2.6
16. KSKQACRLRKCYEVGMVKCGSRRE  2.59
17. KSCQAARLRKCYEVGMVKCGSRRE  2.57
18. KSLQACRLRKCYEVGMVKCGSRRE  2.57
19. CSCQACRLRKCYEVGMVKCGSRRE  2.56
20. KSVQACRLRKCYEVGMVKCGSRRE  2.54
21. HSCQACRLRKCYEVGMVKCGSRRE  2.5
22. KSCQKCRLRKCYEVGMVKCGSRRE  2.48
23. KSCQALRLRKCYEVGMVKCGSRRE  2.48
24. KRCQACRLRKCYEVGMVKCGSRRE  2.43
25. QSCQACRLRKCYEVGMVKCGSRRE  2.42
26. KSCQECRLRKCYEVGMVKCGSRRE  2.39
27. KSCQAERLRKCYEVGMVKCGSRRE  2.38
28. PSCQACRLRKCYEVGMVKCGSRRE  2.35
29. KSCQICRLRKCYEVGMVKCGSRRE  2.34
30. VSCQACRLRKCYEVGMVKCGSRRE  2.31
31. FSCQACRLRKCYEVGMVKCGSRRE  2.31
32. KSCQPCRLRKCYEVGMVKCGSRRE  2.3
33. KSCQLCRLRKCYEVGMVKCGSRRE  2.29
34. KHCQACRLRKCYEVGMVKCGSRRE  2.23
35. RSCQACRLRKCYEVGMVKCGSRRE  2.22
36. KSFQACRLRKCYEVGMVKCGSRRE  2.2
37. KSYQACRLRKCYEVGMVKCGSRRE  2.19
38. KSCMACRLRKCYEVGMVKCGSRRE  2.18
39. KSCTACRLRKCYEVGMVKCGSRRE  2.17
40. KSCQHCRLRKCYEVGMVKCGSRRE  2.15
41. KSCLACRLRKCYEVGMVKCGSRRE  2.15
42. KSCRACRLRKCYEVGMVKCGSRRE  2.15
43. KSCQTCRLRKCYEVGMVKCGSRRE  2.11
44. KSCQQCRLRKCYEVGMVKCGSRRE  2.11
45. KSCSACRLRKCYEVGMVKCGSRRE  2.11
46. TSCQACRLRKCYEVGMVKCGSRRE  2.1
47. KSCEACRLRKCYEVGMVKCGSRRE  2.1
48. KSCQDCRLRKCYEVGMVKCGSRRE  2.09
49. KSCQCCRLRKCYEVGMVKCGSRRE  2.08
50. KSCVACRLRKCYEVGMVKCGSRRE  2.04
51. KKCQACRLRKCYEVGMVKCGSRRE  2.02
52. KSCQSCRLRKCYEVGMVKCGSRRE  2
53. KNCQACRLRKCYEVGMVKCGSRRE  1.98
54. KDCQACRLRKCYEVGMVKCGSRRE  1.98
55. KSCQAFRLRKCYEVGMVKCGSRRE  1.96
56. KQCQACRLRKCYEVGMVKCGSRRE  1.96
57. KGCQACRLRKCYEVGMVKCGSRRE  1.96
58. KECQACRLRKCYEVGMVKCGSRRE  1.96
59. LSCQACRLRKCYEVGMVKCGSRRE  1.95
60. KSCQVCRLRKCYEVGMVKCGSRRE  1.93
61. KVCQACRLRKCYEVGMVKCGSRRE  1.92
62. KTCQACRLRKCYEVGMVKCGSRRE  1.92
63. KWCQACRLRKCYEVGMVKCGSRRE  1.91
64. KSCYACRLRKCYEVGMVKCGSRRE  1.9
65. KSCIACRLRKCYEVGMVKCGSRRE  1.88
66. MSCQACRLRKCYEVGMVKCGSRRE  1.87
67. KSCNACRLRKCYEVGMVKCGSRRE  1.86
68. KPCQACRLRKCYEVGMVKCGSRRE  1.86
69. KSCQGCRLRKCYEVGMVKCGSRRE  1.84
70. KSCKACRLRKCYEVGMVKCGSRRE  1.84
71. KSCHACRLRKCYEVGMVKCGSRRE  1.83
72. KSCQNCRLRKCYEVGMVKCGSRRE  1.81
73. KSCDACRLRKCYEVGMVKCGSRRE  1.81
74. KMCQACRLRKCYEVGMVKCGSRRE  1.78
75. KSCQWCRLRKCYEVGMVKCGSRRE  1.77
76. DSCQACRLRKCYEVGMVKCGSRRE  1.75
77. ESCQACRLRKCYEVGMVKCGSRRE  1.72
78. KSCCACRLRKCYEVGMVKCGSRRE  1.72
79. KSCPACRLRKCYEVGMVKCGSRRE  1.68
80. WSCQACRLRKCYEVGMVKCGSRRE  1.65
81. KSCQYCRLRKCYEVGMVKCGSRRE  1.64
82. KACQACRLRKCYEVGMVKCGSRRE  1.6
83. NSCQACRLRKCYEVGMVKCGSRRE  1.59
84. KSCGACRLRKCYEVGMVKCGSRRE  1.58
85. KLCQACRLRKCYEVGMVKCGSRRE  1.56
86. KSCQFCRLRKCYEVGMVKCGSRRE  1.55
87. KSCAACRLRKCYEVGMVKCGSRRE  1.55
88. KCCQACRLRKCYEVGMVKCGSRRE  1.54
89. KICQACRLRKCYEVGMVKCGSRRE  1.46
90. YSCQACRLRKCYEVGMVKCGSRRE  1.45
91. KFCQACRLRKCYEVGMVKCGSRRE  1.45
92. KSCWACRLRKCYEVGMVKCGSRRE  1.39
93. KSCQMCRLRKCYEVGMVKCGSRRE  1.36
94. KSCFACRLRKCYEVGMVKCGSRRE  1.32
